Residue numbers refer to the chain shown, from its start.
T1: FZD8 CRD (Homo sapiens, UniProt Q9H461)
T1 construct: K31-D155; GPI anchor signal (C); expressed in transfected cells; host or cells: CHO cells, lentiviral pLenti-puro
T1 sequence (Q9H461 31-155): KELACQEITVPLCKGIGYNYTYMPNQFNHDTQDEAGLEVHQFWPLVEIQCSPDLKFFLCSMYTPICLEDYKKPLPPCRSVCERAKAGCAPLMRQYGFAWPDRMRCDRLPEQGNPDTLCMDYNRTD

T2: FZD6 CRD (Homo sapiens, UniProt O60353)
T2 construct: S20-P146; GPI anchor signal (C); expressed in transfected cells; host or cells: CHO cells, lentiviral pLenti-puro
T2 sequence (O60353 20-146): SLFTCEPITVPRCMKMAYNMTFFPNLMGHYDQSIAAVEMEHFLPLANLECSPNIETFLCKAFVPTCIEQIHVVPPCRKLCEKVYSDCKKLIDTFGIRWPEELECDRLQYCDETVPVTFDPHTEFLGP

T3: FZD9 CRD (Homo sapiens, UniProt O00144)
T3 construct: G35-A161; GPI anchor signal (C); expressed in transfected cells; host or cells: CHO cells, lentiviral pLenti-puro
T3 sequence (O00144 35-161): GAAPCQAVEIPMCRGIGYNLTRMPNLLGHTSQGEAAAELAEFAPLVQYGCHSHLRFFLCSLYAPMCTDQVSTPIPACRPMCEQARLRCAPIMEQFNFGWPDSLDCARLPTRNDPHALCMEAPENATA

T4: FZD3 CRD (Homo sapiens, UniProt Q9NPG1)
T4 construct: CRD of FZD1, FZD2, FZD3, FZD4, FZD5, FZD6, FZD7, FZD8, FZD9 or FZD10; GPI anchor signal (C); expressed in transfected cells; host or cells: CHO cells, lentiviral pLenti-puro
T4 sequence (Q9NPG1 23-136 limits assumed): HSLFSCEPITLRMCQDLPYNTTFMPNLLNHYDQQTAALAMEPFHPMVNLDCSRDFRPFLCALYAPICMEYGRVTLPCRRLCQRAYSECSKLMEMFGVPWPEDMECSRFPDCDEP

T5: FZD5 CRD (Homo sapiens, UniProt Q13467)
T5 construct: K29-T156; GPI anchor signal (C); expressed in transfected cells; host or cells: CHO cells, lentiviral pLenti-puro
T5 sequence (Q13467 29-156): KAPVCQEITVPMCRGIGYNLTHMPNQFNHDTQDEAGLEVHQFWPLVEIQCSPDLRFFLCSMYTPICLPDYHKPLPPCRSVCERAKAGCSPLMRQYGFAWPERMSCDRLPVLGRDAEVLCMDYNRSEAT

B1: Fab-2911: anti-FZD5 Fab with antibody variable region Fv-2911; CDR SEQ ID NOs: 35, 36, 50, 89, 126, 163 (antibody, V domains shown)
VH: EVQLVESGGGLVQPGGSLRLSCAASGFNIYYSSMHWVRQAPGKGLEWVAYIYPYSGYTSYADSVKGRFTISADTSKNTAYLQMNSLRAEDTAVYYCARYFWWYGFDYWGQGTLVTVSS
VL: DIQMTQSPSSLSASVGDRVTITCRASQSVSSAVAWYQQKPGKAPKLLIYSASSLYSGVPSRFSGSRSGTDFTLTISSLQPEDFATYYCQQGPWYPFTFGQGTKVEIK
B2: Fab-2906: anti-FZD5 Fab with antibody variable region Fv-2906; CDR SEQ ID NOs: 35, 36, 45, 84, 121, 158 (antibody, V domains shown)
VH: EVQLVESGGGLVQPGGSLRLSCAASGFNFSSSSIHWVRQAPGKGLEWVAYISSSYGYTYYADSVKGRFTISADTSKNTAYLQMNSLRAEDTAVYYCARTVRGSKKPYFSGWAMDYWGQGTLVTVSS
VL: DIQMTQSPSSLSASVGDRVTITCRASQSVSSAVAWYQQKPGKAPKLLIYSASSLYSGVPSRFSGSRSGTDFTLTISSLQPEDFATYYCQQWSWGFLITFGQGTKVEIK
B3: Fab-2903: anti-FZD5 Fab with antibody variable region Fv-2903; CDR SEQ ID NOs: 35, 36, 42, 81, 118, 155 (antibody, V domains shown)
VH: EVQLVESGGGLVQPGGSLRLSCAASGFNLSYYYIHWVRQAPGKGLEWVASIYPYSSYTSYADSVKGRFTISADTSKNTAYLQMNSLRAEDTAVYYCARGAIDYWGQGTLVTVSS
VL: DIQMTQSPSSLSASVGDRVTITCRASQSVSSAVAWYQQKPGKAPKLLIYSASSLYSGVPSRFSGSRSGTDFTLTISSLQPEDFATYYCQQWGGGSSLFTFGQGTKVEIK
B4: Fab-2907: anti-FZD5 Fab with antibody variable region Fv-2907; CDR SEQ ID NOs: 35, 36, 46, 85, 122, 159 (antibody, V domains shown)
VH: EVQLVESGGGLVQPGGSLRLSCAASGFNIYSSYMHWVRQAPGKGLEWVASISSYSGSTYYADSVKGRFTISADTSKNTAYLQMNSLRAEDTAVYYCARSSWGAYIVSYGFDYWGQGTLVTVSS
VL: B3 VL with W91V, G93Y, G94W, S95W, S96G, F98I
B5: Fab-2909: anti-FZD5 Fab with antibody variable region Fv-2909; CDR SEQ ID NOs: 35, 36, 48, 87, 124, 161 (antibody, V domains shown)
VH: B2 VH with F29I, S33Y, I34M, Y50S, Y55S, Y59S
VL: B3 VL with W91S, G92W, G93S, G94Y, S95H, S96Y, F98I
B6: Fab-2910: anti-FZD5 Fab with antibody variable region Fv-2910; CDR SEQ ID NOs: 35, 36, 49, 88, 125, 162 (antibody, V domains shown)
VH: B3 VH with L29I, Y32S, I34M, P53S, Y54S, Y57S, I101M
VL: B2 VL with S92Y, W93G, G94S, F95H

target: T1, FZD8 CRD; test: Immunofluorescence of anti-FZD5 Fab binding to CHO cells overexpressing Frizzled CRD; parameters: key: −: no binding; +: very weak binder; ++: weak binder; +++: good binder; ++++: very good binder
Experimental: (§1) Plasmids: pLCKO lentiviral vector used for knockout (TKO) library construction and expression of individual gRNAs was constructed as described previously (Hart et al., 2015). Briefly, single guide RNA (sgRNA) scaffold was amplified from px330 (Addgene 42230) and cloned into pLKO.TRC005 lentiviral vector (Broad Institute, Cambridge, Mass.) using AgeI/EcoRI restriction sites. BfuAI sites were added at the 5′ end of the sgRNA scaffold for cloning the TKO library or individual gRNA target sequences. Lenti Cas9-2A-BsdR vector used to generate Cas9 stable expression cell lines was constructed as described previously (Hart et al., 2015). Briefly, lentiCRISPR pXPR_001 (Addgene 49535) was modified through removal of the sgRNA scaffold region through NdeI/EcoRI digest and blunt ends generation using Large Klenow Fragment (NEB). 2A-puro was replaced with 2A-BsdR by PCR using the NheI/MluI sites. Each of the 10 human Frizzled cysteine rich domains (CRDs) were cloned into the lentiviral expression plasmid pLenti-puro in the following cassette: FZD_CRD-MYC-GPI.
(§2) To confirm that the FZD5-WNT7B circuit is not driven simply by expression and rule out the possibility of a disconnect between RNA and protein levels for the Wnt receptors in HPAF-II cells, a panel of recombinant Fabs were generated, alternatively referred to herein as ‘Frizzled profiler’, that can detect and discriminate all but one of the ten Frizzled receptors. […] To characterize the binding specificity of these Fabs on cells, a panel of 10 CHO cell lines was generated, each expressing the CRD domain of a different myc-tagged Frizzled family member anchored at the plasma membrane through a GPI anchor (CHO-myc-FZDGPI). Despite the high sequence identity between Frizzled family members (FIG. 7A, FIG. 7B), selective Fabs were identified for FZD4, FZD5, FZD6 and FZD10 as assessed by immunofluorescence and flow cytometry (FIG. 7D and FIG. 8). […] The FZD8 CRD is most homologous to that of FZD5 (FIG. 7B). These Fabs can be used to discriminate expression of FZD1, FZD2, FZD4, FZD5, FZD6, FZD7, FZD8, FZD9 and FZD10 (FIG. 7D and FIG. 8). The ‘Frizzled profiler’ therefore consists of 10 different Fabs that can be used to discriminate expression of 9 different Frizzled family members. The Frizzled profiler was then used to confirm that HPAF-II cells express FZD1, FZD5, FZD6 and possibly FZD8 (FIG. 7E).
(§3) The binding of anti-FZD5 Fabs to cell surface-expressed Frizzled protein was further determined for each member of the Frizzled family via flow cytometry and immunofluorescence analysis of a panel of 10 CHO cell lines, each ectopically over-expressing the extracellular cysteine-rich domain (CRD) of a different Frizzled protein family member.

Immunofluorescence binding, Frizzled CRD overexpressed on CHO cells: FZD8	Molecule
−	B1
+	B2
+	B3
+	B4
−	B5
−	B6

target: T2, FZD6 CRD; test: as above; parameters: key: −: no binding; +: very weak binder; ++: weak binder; +++: good binder; ++++: very good binder
Experimental: as §1, §2, §3

Immunofluorescence binding, Frizzled CRD overexpressed on CHO cells: FZD6	Molecule
−	B1
−	B2
−	B3
−	B4
−	B5
−	B6

target: T6, FZD1 CRD (Homo sapiens, UniProt Q9UP38); test: as above; parameters: key: −: no binding; +: very weak binder; ++: weak binder; +++: good binder; ++++: very good binder
T6 construct: D112-P238; GPI anchor signal (C); expressed in transfected cells; host or cells: CHO cells, lentiviral pLenti-puro
Experimental: as §1, §2, §3

Immunofluorescence binding, Frizzled CRD overexpressed on CHO cells: FZD1	Molecule
++	B1
−	B2
+	B3
−	B4
−	B5
−	B6

target: T3, FZD9 CRD; test: as above; parameters: key: −: no binding; +: very weak binder; ++: weak binder; +++: good binder; ++++: very good binder
Experimental: as §1, §2, §3

Immunofluorescence binding, Frizzled CRD overexpressed on CHO cells: FZD9	Molecule
−	B1
−	B2
−	B3
−	B4
−	B5
−	B6

target: T7, FZD7 CRD (Homo sapiens, UniProt O75084); test: as above; parameters: key: −: no binding; +: very weak binder; ++: weak binder; +++: good binder; ++++: very good binder
T7 construct: D45-S169; GPI anchor signal (C); expressed in transfected cells; host or cells: CHO cells, lentiviral pLenti-puro
Experimental: as §1, §2, §3

Immunofluorescence binding, Frizzled CRD overexpressed on CHO cells: FZD7	Molecule
+++	B1
+	B2
++	B3
+	B4
+	B5
+	B6

target: T4, FZD3 CRD; test: as above; parameters: key: −: no binding; +: very weak binder; ++: weak binder; +++: good binder; ++++: very good binder
Experimental: as §1, §2, §3

Immunofluorescence binding, Frizzled CRD overexpressed on CHO cells: FZD3	Molecule
−	B1
−	B2
−	B3
−	B4
−	B5
−	B6

target: T5, FZD5 CRD; test: as above; parameters: key: −: no binding; +: very weak binder; ++: weak binder; +++: good binder; ++++: very good binder
Experimental: as §1, §2, §3

Immunofluorescence binding, Frizzled CRD overexpressed on CHO cells: FZD5	Molecule
++	B1
++++	B2
++++	B3
++++	B4
+++	B5
++++	B6

Source: patent US20210253718A1, “FRIZZLED5 PROTEIN-BINDING AGENTS” (Modmab Therapeutics Corporation, priority 2016, published 2021)
